Data published in the nanobody polyreactivity screen of Harvey et al. (2022).

Assay: yeast display, Sf9 membrane polyspecificity reagent, FACS + sequencing; frameworks hold sequencing errors
How it was run: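 Nanobodies from a synthetic yeast display library (Saccharomyces cerevisiae BJ5465), induced 36–48 hours with galactose, were stained 1 hour at 4 °C with 10% biotinylated, detergent-solubilized Sf9 membrane reagent, enriched on streptavidin microbeads, then FACS-sorted. Anti-HA (expression) and streptavidin (reagent binding) fluorescence set low and high (top ~1%) gates. Polyreactivity labels come from the gate of origin. Genes were colony-PCR amplified, MiSeq 2 × 250 sequenced and filtered by CDR length.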

Sequence	polyreactivity (PSR sort gate)
QVQLVESGGGLVQAGGSLRLSCAASGFIIKVYAMGWYRQAPGKERELVAAITWSGGSTYYADSVKGRFTISRDNAKNTVYLQMNSLKPEDTAVYYCAADTYYPDWITYPQGDFDYWGQGTQVTVSS	low polyreactivity
QVQLVESGGGLVQAGGSLRLSCAASGFTFEVYAMGWYIQAPGKERELVAAITSSGGRTYYADSVKGRFTISRDNAKNTVYLQMNSLKPEDTAVYYCNARSKQPVYPYVQSLNYWGQGTQVTVSS	high polyreactivity
QVQLVESGGGLVQAGGSLRLSCDASGITLRTYSIGWYRQAPGKERELVAAISKSGDRTYYADSVKGRFTISRDNAKNTVYLQMNSLKPEDNAVYYCAKATNAQYLYDYWGQGTHVTVSS	low polyreactivity
QQLQESGGGLVQAGGSLRLSCAASGSISGSVLMGLYRQAPGKEREFVASISLGGNTNYADSVKGRFTISRENGKITVFLQMNSLKPEVAAVYYCAAYISLFETHPYWGQGTQVTVRS	high polyreactivity
QVQLVESGGGLVQAGGSLRLSCAASGITFSTYAMGWYRQAPGKERELVAAINWSGGSTRYADSVKGRFTISRDNAKNTVYLQMNSLKPADTAVYYCAAEVQGQVGEFDYWGQGTQVTVSS	low polyreactivity
QVQLVESGGGLLQAGGSLRLSCAASGSTIWSYAMGWYRQAPGKERELVASITWSGGSTYADSVKGRFTISRDNAKNTVYLQMNSLKPEDTAVYYCAADRGSYPDTGDYWGHGTQVTVSS	low polyreactivity
QVHLVESGGGLVQAGGSLRLSGAASGLTFSGNAMGWYRQAPGKERELVAAISWNGGRTYYADSVKGRFTISRDNAKNTVYLQMNSLKPEDTAVYYCAAEVRYSTYEDYDYWGQGTEVTVSS	low polyreactivity
QVQLVESGGGLVQAGRTLRLSCAASGSNFSVYVMGWYRQAPGKEWELVAAISWSDSDTYYADSVKGRFTISRDNATNNVYLLMNSLNPEDTAVYYCAAETFDYHDYIANGSGEYDYWGQGNQVTVSS	high polyreactivity
QVQLVESGGGLVQAGGSLRLSCAASGRIFNAYAMGWYRPAPGKERELVAAISSIGGRTYYADSVKGRFTISRDNAKNTVYLQMNSLKPVDTAVYYCAADWSYVRYYYWGQGTQVTVSS	high polyreactivity
QVQLVESGGGLVQAGGSLRLSCAASGRISLRNGMGWYRQAPGKERELVAAISRGGSTYYADSVKGRFTISRDNAKNTVYLHMNSLKPEDTAVYYCNAYIRPIYVDDDYWGQSTQVTVSS	low polyreactivity
QGQLVESGGGLVQAGGSLRLSCAASGFIYGFYGMGWYRQAPGKEREFVAAIDFIDGDTYYADSVKGRFTISRDNAKNTVYLQMNSLKPEDTAVYYCAAVGSFWQFDYWGQGTQVTVSS	low polyreactivity
QVQLVESGGGLVQAGGSLRLTCAASGFTFFVYAMGWYRQAPGKERELVASITFRSGTTYYADSVKGRFTISRDNAKNTVYLQMNSLKPEDTAVYYCAADSRRSSRGYGYYYWGQGTQVTVSS	high polyreactivity
QVQLVESGGGLVQAGGSLRLSCAASGRTFVSYAMGWYRQAPGKERELVAGITWRGGSTYYADSVKGRFTISRDNAKNTVYLQMNSLTPEDTAVYYCAKRSVLYGNRIFDYWGQGTQVTVSS	high polyreactivity
QVQHVESGGGLVQAGGSLRLSCAASVSIFYGYAMGWSRQAPGKERELVATIRFITGSTYYADSVKGRFTISRDNAKNTVYLQMNSRKPEDTAVYYCAAVYVGYYDNYDYWGQGTQVTVSS	low polyreactivity
QVQLVESGGGLVQAGGSLRLSCAASGFIFDDYAMGWYRQAPGKERELVAAISASGGRTFYADSVKGRFTISRDNAKNTVYLQMNSLKPEDTAVYYCATIVDTYVFRYYYWGQGTQVTVSS	high polyreactivity
QVQHVDSGGGLFQAAGSLRLSCAASGGTFSFYTMGWSRQGPGKERELVAAIDSTGRTNYADSVKGRFTISRDKAKNTVYLQMNSLKPEDSAVYYCSAGPPRADYDYWGQGTQVTVSS	low polyreactivity

Sequence	polyreactivity (PSR sort gate)
QVQLVESGGGLVQAGGSLRLSCAASGSIFPGYAMGWYRQAPGKERELVAAISSGGSTNYADSVKGRFTISRDNAKNTVYLQMNSLKPEDTAVYYCAARVWRYHVYAFYYWGQGTQVTVSS	high polyreactivity
QVQLVESGGGLVQAGGSLRLSCAASGSTLNRNVMGWYRQAPGKERELVAVITYGVGSTYYADSVKGRFTISRDNAKNTVYLQMNSLKPEDTAVYYCNRPTYLHSTSYSYDYWGQGTQVTVSS	low polyreactivity
QVQLVDSGGGLVQAGGSHRLSCAASGLTYHQYAMGWYRQAPGKERELVAAITSDGASTNYADSVKGRFTISRDNAKNTVYLQMISLKPEDTAVYYGAARRRSRQYRYDYWGQGTQVTVSS	high polyreactivity
QVQLVESGGGLVQAGGSLRLSCAASGFIFTIYVMGWYRQAPGKERELVAAISKSVGRTYYADSVKGRFTISRDNAKNTVYLQMNSLKPEDTAVYYCAAVYVKYYGGSYDYWGQGTQVTVSS	high polyreactivity
QVQLVESGGGLVQAGGSLRLSCAASGSTFARYAMGWYRQAPGKERELVAAISRSGSNTYYADSVKGRFTISRDNAKNTVYLQMNSLKPEDTAVYYCAAVQPGQRTVAYDYWGQGTLVTVSS	high polyreactivity
QVQLLESGGGLVQAGGSLRLSCAASGRTFYRYAMGWYRKAPGKETELVAANSSSGGSTYYADSVKGRFTISRDNAKNTVYLQMNSLKPEDTAVYYCAAQYFLFTTPYRYAPRMGYWGQGTQVTVSS	high polyreactivity
QVQLVESGGGLVQAGGRLRLSCPASGRTFPPYAMGWYRQAPGKERELVGAISRRAGTTYYADSVKGRFTISRDNAKNTVYLQMNSLKPEDTAVYYCAALTESSSYGYWGLGTQVTVSS	low polyreactivity
QVQLVESGGGLVQAGGSLRLSCAASGRIFQGYAKGWYRQAPGKEREFVAAITASGGTTYYADSVKGRFTISRDNAKNTVYLQMNSLKPEDTAVYYCAKYRYTVAGYNYWGQGTQVTVSS	high polyreactivity
QVQLVESGVGLVQAGGSLRLSCAPSGSTLGYYVMGWYRQAPGKERELVAAITGGGSTDYADSVNGRFTISRDNAKNTVYLQMNSLKPEDTAVYYCAAERTRTGQLFWWGPIYDYWGLGTQVTVSS	low polyreactivity
QVHLVESCGGLVQAGGSLRLSCAASGNTFVYNDMGWYRQAPGKERELVDDIRYSGSTYYADSVKGRFTISRDNAKNTVYLQMNSLKPEDTAVYYCAKAYYVLSWMGYWGQGTQVTVSS	low polyreactivity
QVQLVESGGGLVQAGGSLRLSCAASGSIFDYNAMGWYRQATGKERELVAAISSDGSTYYADSVKGRFTISRDNAKNSVYLQMNSLKPEDTAVYYCAADSVYSWSDYWGQGTQVTVSS	low polyreactivity
QVQLVESGGGLVQAGGSLRLSCAASGRTFKTYSMGWYRQAPGKERELVASISGSGSSTYYADSVKGRFTISRDNAKNSVYLQMKSRKPEDTAVYYCNAARSQGYEYATYGYWGQGTQVTVSS	low polyreactivity
QDQHVESGGGLVQAGGSLRLSCAASGGNYAGYAMGWYRQAAGKARELVAAISWRGTSTYYADSVKGRFTISRDNAKNTVYLELNSLKPEDTAVYYCAAEAASWWGYGYWGQGTQVTVSS	high polyreactivity
QVQLVESGGGLVQAGGSLRLSCAASGSTFDGYAMGWYRQAPGKERELVAAITSSSTSTYYADSVKGRFTISRDNAKNTVYLQMYSLKPEDTAVYYCAAQYFSYISVYSFYTMGYWGQGTQVTVSS	low polyreactivity
QVQLVESGGGLVQAGGSLRLSCAASGRILTSNAMGWYRQAPGTEMELVAAISWSGGSTYYADSVKGRFTISRDNAKNTVYLQMNSLKPEDTAVYYCAAVSYYASDYRYDYWGQGTQVTVSS	low polyreactivity
QVQIVESGGGLVQEGGSLRLSCAASGFIFRRNAMGWYRQAPGKERELVAAISSRGGTTHYADSVKGRFTISRDNAKNTVYLQMNSLKPEDSSVYYCATTPQRGGLGGVDYWGQGTQVTVSS	high polyreactivity
